How the values were obtained:
cryo-EM structure = target: the molecule itself; test: cryo-EM structure
[1] = target: T1, Melbournevirus histone doublet MV-H2B-H2A (MEL_369) (Melbournevirus, UniProt A0A097I2B5 1-269); test: cryo-EM structure
T1 sequence (looked up): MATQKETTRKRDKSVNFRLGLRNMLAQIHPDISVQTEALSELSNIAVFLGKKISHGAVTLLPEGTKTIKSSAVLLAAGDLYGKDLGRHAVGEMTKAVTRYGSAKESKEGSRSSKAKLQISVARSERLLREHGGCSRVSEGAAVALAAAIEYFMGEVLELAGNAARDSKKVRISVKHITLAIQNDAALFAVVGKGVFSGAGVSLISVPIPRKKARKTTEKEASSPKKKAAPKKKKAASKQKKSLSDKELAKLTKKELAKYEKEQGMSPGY

B1: Melbournevirus histone doublet MV-H4-H3 (MEL_368) (natural protein, UniProt A0A097I2D0 1-216, looked up)
chain: MSKAGKKVKAQQHGHLADHVSVGETQIPKASTQHLLRKAGSLSAAGDTEVPIRGFVHMKLHKLVQKSLLAMQLAKRKTIMKSDVKKAAELMHLPVFAIPTKDSGAKGSVFLSCRQKGAGSAGTGSETNSQEVRSQMKSTCLIIPKERFRTMAKEISKKEGHDVHIAEAALDMLQVIVESCTVRLLEKALVITYSGKRTRVTSKDIETAFMLEHGPL
cryo-EM structure
  binding result: binds
[1]
  binding result: binds
